Experimental findings from patent US20240132615A1 (ICHNOS SCIENCES, published 2024) are described below.

This assay addresses T1, human CD3 on cells (HPB-ALL cells, primary human T cells) (human, UniProt P07766 23-207).
T1 construct: whole, on cells; only the epsilon chain is written
The assay can be described thus: flow cytometry, HPB-ALL WT.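 Also: binding read by flow cytometry as PE geometric mean fluorescence intensity on live single cells, dead cells excluded with SYTOX Green, only samples with at least 200 gated cells.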

T1 sequence (P07766 23-207): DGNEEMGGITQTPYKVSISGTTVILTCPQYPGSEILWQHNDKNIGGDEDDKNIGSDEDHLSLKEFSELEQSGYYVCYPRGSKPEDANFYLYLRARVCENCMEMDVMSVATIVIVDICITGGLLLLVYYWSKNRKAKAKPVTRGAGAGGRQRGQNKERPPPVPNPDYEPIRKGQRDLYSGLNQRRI
Method: Cells were then washed twice and resuspended in 100 μl of FACS buffer containing SYTOX Green dead cell stain (ThermoFisher Scientific, catalog NO: S34860) diluted 1/2000. Samples were acquired on a CytoFlex instruments (Beckman Coulter). Cells were gated based on size on FSC vs SSC and debris, doublets and dead cells were excluded. Cells were analyzed for PE-geometric mean (geomean) fluorescence intensity using FlowJo software. Only samples showing at least 200 cells in final gate were considered in the further steps of the analysis.

B1: Anti-CD3-UCP05-H2 IgG1LALA (antibody, V domains shown)
VH: QVQLVQSGAEVKKPGSSVKVSCKASGGGFSHYALNWVRQAPGQGLEWMGGIIPLTGKTAYAQKFQGRVTITADESTSTAYMELSSLRSEDTAVYYCARKISSARDYWGQGTLVTVSS
VL: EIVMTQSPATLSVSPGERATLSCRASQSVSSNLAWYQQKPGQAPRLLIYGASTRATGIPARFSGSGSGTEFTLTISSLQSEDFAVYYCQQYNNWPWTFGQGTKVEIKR
notes: IgG1 LALA
With B1, the binding result is reported as “no binding (tested: 800 nM)”.

B2: Anti-CD3-UCP07-A1 IgG1LALA (antibody, V domains shown)
VH: EVQLVESGGGLVKPGGSLRLSCAASGFTFSDYAVNWVRQAPGKGLEWVGRIKSKNEGGTGYAAPVKGRFTISRDDSKNTLYLQMNSLKTEDTAVYYCAREPSYYRDGAADYWGQGTLVTVSS
VL: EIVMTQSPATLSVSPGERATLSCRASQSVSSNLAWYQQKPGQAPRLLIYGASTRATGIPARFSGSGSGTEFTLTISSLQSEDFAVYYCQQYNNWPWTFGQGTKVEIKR
notes: IgG1 LALA
Turning to B2, the binding result is listed as “no binding (tested: 800 nM)”.

B3: Anti-CD3-UCP02-B2 IgG1LALA (antibody, V domains shown)
VH: EVQLLESGGGLVQPGGSLRLSCAASGFTFSHYVLNWVRQAPGKGLEWVSGISLTGIATIYADSVKGRFTISRDNSKNTLYLQMNSLRAEDTAVYYCARGDPTSAFDVWGQGTLVTVSS
VL: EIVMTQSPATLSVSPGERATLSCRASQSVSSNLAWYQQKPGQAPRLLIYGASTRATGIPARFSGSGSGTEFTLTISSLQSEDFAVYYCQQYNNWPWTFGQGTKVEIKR
notes: IgG1 LALA
Consider B3, for which the binding result was “no binding (tested: 800 nM)”.

B4: Anti-CD3-UCP05-A1 IgG1LALA (antibody, V domains shown)
VH: EVQLLESGGGLVQPGGSLRLSCAASGFTFSTYAMSWVRQAPGKGLELVSAISRHGGFSRYADSVKGRFTISRDNSKNTLYLQMNSLRAEDTAVYYCARASSYGYDPWGQGTLVTVSS
VL: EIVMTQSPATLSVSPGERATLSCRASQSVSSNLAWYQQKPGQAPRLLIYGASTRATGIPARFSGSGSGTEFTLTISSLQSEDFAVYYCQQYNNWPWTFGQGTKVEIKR
notes: IgG1 LALA
Regarding B4, the binding result was “no binding (tested: 800 nM)”.

B5: Anti-CD3-UCP05-H1 IgG1LALA (antibody, V domains shown)
VH: EVQLLESGGGLVQPGGSLRLSCAASGFAFSNSAMSWVRQAPGKGLELVSAISTKGGKTLYADSVKGRFTISRDNSKNTLYLQMNSLRAEDTAVYYCARSSPYGFDYWGQGTLVTVSS
VL: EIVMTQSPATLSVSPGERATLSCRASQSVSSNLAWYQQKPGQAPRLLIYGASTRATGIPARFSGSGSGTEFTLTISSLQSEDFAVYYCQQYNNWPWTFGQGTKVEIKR
notes: IgG1 LALA
With B5, the binding result is recorded as “no binding (tested: 800 nM)”.

B6: Anti-CD3-UCP03-C5 IgG1LALA (antibody, V domains shown)
VH: EVQLVESGGGLIQPGGSLRLSCAASGFTVSDNDMSWVRQAPGKGLEWVSLIYSNGGTHYADSVKGRFTISRDNSKNTLYLQMNSLRAEDTAVYYCARWGISLGEPYFDYWGQGTLVTVSS
VL: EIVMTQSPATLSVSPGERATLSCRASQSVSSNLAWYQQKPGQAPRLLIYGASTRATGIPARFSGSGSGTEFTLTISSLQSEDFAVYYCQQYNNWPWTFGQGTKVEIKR
notes: IgG1 LALA
For B6, the binding result is “no binding (tested: 800 nM)”.

B7: Anti-CD3-UCP07-E1 IgG1LALA (antibody, V domains shown)
VH: EVQLLESGGGLVQPGGSLRLSCAASGFTFSRNAMNWVRQAPGKGLEWVSSISRIGGFTIYADSVKGRFTISRDNSKNTLYLQMNSLRAEDTAVYYCARVGSGGKAFDVWGQGTLVTVSS
VL: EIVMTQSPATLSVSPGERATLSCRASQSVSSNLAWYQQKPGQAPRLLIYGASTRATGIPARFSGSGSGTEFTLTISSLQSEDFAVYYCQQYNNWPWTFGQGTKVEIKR
notes: IgG1 LALA
As for B7, the binding result was “no binding (tested: 800 nM)”.

B8: Anti-CD3-UCP05-C1 IgG1LALA (antibody, V domains shown)
VH: QVQLVQSGAEVKKPGSSVKVSCKASGGRFSRQALTWVRQAPGQGLEWMGGIIPDHGRPIYAQKFQGRVTITADESTSTAYMELSSLRSEDTAVYYCARGKGGSVAGWKFDVWGQGTLVTVSS
VL: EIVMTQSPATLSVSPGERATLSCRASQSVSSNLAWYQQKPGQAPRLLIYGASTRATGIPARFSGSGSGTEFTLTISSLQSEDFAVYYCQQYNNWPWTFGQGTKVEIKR
notes: IgG1 LALA
Take B8: the binding result is given as “no binding (tested: 800 nM)”.

B9: Anti-CD3-UCP03-H2 IgG1LALA (antibody, V domains shown)
VH: EVQLVESGGGLIQPGGSLRLSCAASGFTVRDSYMHWVRQAPGKGLEWVSIIYYTGKTHYADSVKGRFTISRDNSKNTLYLQMNSLRAEDTAVYYCARSQYGYFDYWGQGTLVTVSS
VL: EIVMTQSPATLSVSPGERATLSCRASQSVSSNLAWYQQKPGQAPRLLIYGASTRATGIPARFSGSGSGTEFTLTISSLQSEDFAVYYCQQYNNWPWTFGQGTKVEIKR
notes: IgG1 LALA
Consider B9, for which the binding result is reported as “no binding (tested: 800 nM)”.

B10: Anti-CD3-UCP03-A3 IgG1LALA (antibody, V domains shown)
VH: EVQLLESGGGLVQPGGSLRLSCAASGFTFSSNAMSWVRQAPGKGLEWVSAVGKYGGATSYADSVKGRFTISRDNSKNTLYLQMNSLRAEDTAVYYCARGGPGYSTFYEFDNWGQGTLVTVSS
VL: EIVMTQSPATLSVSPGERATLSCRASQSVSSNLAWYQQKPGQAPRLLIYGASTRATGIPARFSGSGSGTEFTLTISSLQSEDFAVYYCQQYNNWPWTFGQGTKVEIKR
notes: IgG1 LALA
For B10, the binding result was “no binding (tested: 800 nM)”.

B11: Anti-CD3-UCP07-F2 IgG1LALA (antibody, V domains shown)
VH: QVQLVQSGAEVKKPGSSVKVSCKASGGKFNKYVIGWVRQAPGQGLEWMGGVIPLKGQSKYAQKFQGRVTITADESTSTAYMELSSLRSEDTAVYYCARGRYYGDYSWKFDYWGQGTLVTVSS
VL: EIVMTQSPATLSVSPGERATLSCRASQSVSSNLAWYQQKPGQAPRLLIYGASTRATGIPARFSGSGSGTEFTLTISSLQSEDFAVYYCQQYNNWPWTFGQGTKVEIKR
notes: IgG1 LALA
B11: the binding result is given as “no binding (tested: 800 nM)”.

B12: Anti-CD3-UCP03-F2 IgG1LALA (antibody, V domains shown)
VH: EVQLLESGGGLVQPGGSLRLSCAASGFAFSHYAMTWVRQAPGKGLELVSAISQHGGYTAYADSVKGRFTISRDNSKNTLYLQMNSLRAEDTAVYYCARGHPVHAFDFWGQGTLVTVSS
VL: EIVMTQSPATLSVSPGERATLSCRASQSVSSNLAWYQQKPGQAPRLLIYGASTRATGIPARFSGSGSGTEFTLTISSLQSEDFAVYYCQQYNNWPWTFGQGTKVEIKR
notes: IgG1 LALA
For B12, the binding result is “no binding (tested: 800 nM)”.

B13: Anti-CD3-UCP03-G2 IgG1LALA (antibody, V domains shown)
VH: QVQLVQSGAEVKKPGSSVKVSCKASGYGFNLYAINWVRQAPGQGLEWMGRIIPEYGHTRYAQKFQGRVTITADESTSTAYMELSSLRSEDTAVYYCARDRYSTYSGGMDYWGQGTLVTVSS
VL: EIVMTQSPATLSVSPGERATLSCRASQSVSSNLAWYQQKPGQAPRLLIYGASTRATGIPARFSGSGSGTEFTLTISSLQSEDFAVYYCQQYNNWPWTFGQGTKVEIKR
notes: IgG1 LALA
Regarding B13, the binding result is given as “no binding (tested: 800 nM)”.

B14: Anti-CD3-UCP03-C1 IgG1LALA (antibody, V domains shown)
VH: EVQLLESGGGLVQPGGSLRLSCAASGFTFSQYAMSWVRQAPGKGLEWVSVISPSGATAVYADSVKGRFTISRDNSKNTLYLQMNSLRAEDTAVYYCARGQYDDLDKSGYEFDHWGQGTLVTVSS
VL: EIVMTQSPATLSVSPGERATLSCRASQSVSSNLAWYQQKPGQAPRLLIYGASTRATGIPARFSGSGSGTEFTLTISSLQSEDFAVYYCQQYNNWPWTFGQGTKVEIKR
notes: IgG1 LALA
As to B14, the binding result was “no binding (tested: 800 nM)”.

B15: Anti-CD3-UCP07-C3 IgG1LALA (antibody, V domains shown)
VH: QVQLVQSGAEVKKPGSSVKVSCKASGGSFSRYAIGWVRQAPGQGLEWMGGIIPDVGIAFYAQKFQGRVTITADESTSTAYMELSSLRSEDTAVYYCAREYHYVGAFDIWGQGTLVTVSS
VL: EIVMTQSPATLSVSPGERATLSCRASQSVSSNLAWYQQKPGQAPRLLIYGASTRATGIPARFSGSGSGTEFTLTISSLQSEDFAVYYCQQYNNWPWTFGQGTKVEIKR
notes: IgG1 LALA
Turning to B15, the binding result is listed as “no binding (tested: 800 nM)”.

B16: Anti-CD3-UCP05-D2 IgG1LALA (antibody, V domains shown)
VH: EVQLLESGGGLVQPGGSLRLSCAASGFTFNIYALGWVRQAPGKGLEWVSAISQNGGYTLYADSVKGRFTISRDNSKNTLYLQMNSLRAEDTAVYYCARLRGGSGMDVWGQGTLVTVSS
VL: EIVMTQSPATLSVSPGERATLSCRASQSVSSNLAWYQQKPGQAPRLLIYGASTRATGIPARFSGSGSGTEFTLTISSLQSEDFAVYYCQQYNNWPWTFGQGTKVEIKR
notes: IgG1 LALA
With B16, the binding result is given as “no binding (tested: 800 nM)”.

B17: Anti-CD3-UCP07-E2 IgG1LALA (antibody, V domains shown)
VH: EVQLLESGGGLVQPGGSLRLSCAASGFPFSNYAMSWVRQAPGKGLEWVSAISRKGGFTEYADSVKGRFTISRDNSKNTLYLQMNSLRAEDTAVYYCARASYLGGFAYWGQGTLVTVSS
VL: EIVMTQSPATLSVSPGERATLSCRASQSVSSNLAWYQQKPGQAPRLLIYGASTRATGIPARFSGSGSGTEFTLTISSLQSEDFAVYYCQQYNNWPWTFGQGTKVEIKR
notes: IgG1 LALA
On to B17, for which the binding result is given as “no binding (tested: 800 nM)”.

B18: Anti-CD3-UCP07-A3 IgG1LALA (antibody, V domains shown)
VH: EVQLLESGGGLVQPGGSLRLSCAASGVSFREYVMAWVRQAPGKGLEWVSVISQYGGNTYYADSVKGRFTISRDNSKNTLYLQMNSLRAEDTAVYYCARSGGSVPFDYWGQGTLVTVSS
VL: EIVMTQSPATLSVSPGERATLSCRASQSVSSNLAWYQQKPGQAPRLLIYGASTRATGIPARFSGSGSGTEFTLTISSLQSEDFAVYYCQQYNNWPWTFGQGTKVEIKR
notes: IgG1 LALA
As to B18, the binding result is listed as “no binding (tested: 800 nM)”.

B19: Anti-CD3-UCP03-F1 IgG1LALA (antibody, V domains shown)
VH: EVQLLESGGGLVQPGGSLRLSCAASGFPFSHHVMTWVRQAPGKGLEWVSAITQRGEYTLYADSVKGRFTISRDNSKNTLYLQMNSLRAEDTAVYYCARGPVPGGDHAFDYWGQGTLVTVSS
VL: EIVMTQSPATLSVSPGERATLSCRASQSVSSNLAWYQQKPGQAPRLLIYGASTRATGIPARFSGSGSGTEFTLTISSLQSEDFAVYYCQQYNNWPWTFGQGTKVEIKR
notes: IgG1 LALA
Consider B19, for which the binding result is on record as “no binding (tested: 800 nM)”.

B20: Anti-CD3-UCP05-G2 IgG1LALA (antibody, V domains shown)
VH: QVQLVQSGAEVKKPGSSVKVSCKASGGVFNFYAISWVRQAPGQGLEWMGGITPDGGFVKYAQKFQGRVTITADESTSTAYMELSSLRSEDTAVYYCARSPVSLYYGKYYVYYGAFDVWGQGTLVTVSS
VL: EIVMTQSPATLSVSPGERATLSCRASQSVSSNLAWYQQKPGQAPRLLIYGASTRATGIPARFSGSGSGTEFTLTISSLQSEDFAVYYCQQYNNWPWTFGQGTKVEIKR
notes: IgG1 LALA
As to B20, the binding result is on record as “no binding (tested: 800 nM)”.

B21: Anti-CD3-UCP03-E2 IgG1LALA (antibody, V domains shown)
VH: EVQLVESGGGLIQPGGSLRLSCAASGISVGNNYMSWVRQAPGKGLEWVSVIYPNGRIKYADSVKGRFTISRDNSKNTLYLQMNSLRAEDTAVYYCARGVIDGSYLDFAYWGQGTLVTVSS
VL: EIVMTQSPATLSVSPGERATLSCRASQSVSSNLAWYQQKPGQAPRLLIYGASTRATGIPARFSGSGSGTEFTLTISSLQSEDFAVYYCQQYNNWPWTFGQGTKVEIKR
notes: IgG1 LALA
Turning to B21, the binding result is reported as “no binding (tested: 800 nM)”.

B22: Anti-CD3-UCP03-B1 IgG1LALA (antibody, V domains shown)
VH: EVQLLESGGGLVQPGGSLRLSCAASGFTFSRYAMTWVRQAPGKGLEWVSGISKYGGATAYADSVKGRFTISRDNSKNTLYLQMNSLRAEDTAVYYCARGGTRFDIWGQGTLVTVSS
VL: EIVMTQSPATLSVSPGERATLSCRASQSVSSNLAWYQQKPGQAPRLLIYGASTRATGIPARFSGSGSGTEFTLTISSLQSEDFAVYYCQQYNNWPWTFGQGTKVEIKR
notes: IgG1 LALA
B22: the binding result is given as “no binding (tested: 800 nM)”.

B23: Anti-CD3-UCP05-F1 IgG1LALA (antibody, V domains shown)
VH: EVQLLESGGGLVQPGGSLRLSCAASGFTFRHYAMTWVRQAPGKGLEWVSAITQRGGYTYYADSVKGRFTISRDNSKNTLYLQMNSLRAEDTAVYYCARAGPSGGGFDYWGQGTLVTVSS
VL: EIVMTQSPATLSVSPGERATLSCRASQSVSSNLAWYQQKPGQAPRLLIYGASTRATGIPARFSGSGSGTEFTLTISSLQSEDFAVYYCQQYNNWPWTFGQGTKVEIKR
notes: IgG1 LALA
Consider B23, for which the binding result is reported as “no binding (tested: 800 nM)”.

B24: Anti-CD3-UCP07-D1 IgG1LALA (antibody, V domains shown)
VH: EVQLLESGGGLVQPGGSLRLSCAASGFNFNINVMSWVRQAPGKGLEWVSAISQSGGYTLYADSVKGRFTISRDNSKNTLYLQMNSLRAEDTAVYYCARASPYGGGFDYWGQGTLVTVSS
VL: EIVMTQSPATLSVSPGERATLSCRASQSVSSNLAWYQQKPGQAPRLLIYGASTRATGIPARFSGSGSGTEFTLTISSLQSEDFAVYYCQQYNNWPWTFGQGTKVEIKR
notes: IgG1 LALA
As for B24, the binding result is given as “no binding (tested: 800 nM)”.

B25: Anti-CD3-UCP05-A2 IgG1LALA (antibody, V domains shown)
VH: EVQLLESGGGLVQPGGSLRLSCAASGFSFKIYAMGWVRQAPGKGLEWVSAITQQGGATVYADSVKGRFTISRDNSKNTLYLQMNSLRAEDTAVYYCARPGDLGGGFDIWGQGTLVTVSS
VL: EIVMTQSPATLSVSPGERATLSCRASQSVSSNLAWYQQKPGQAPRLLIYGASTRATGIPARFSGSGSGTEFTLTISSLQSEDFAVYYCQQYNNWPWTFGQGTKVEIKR
notes: IgG1 LALA
As to B25, the binding result is recorded as “no binding (tested: 800 nM)”.

B26: Anti-CD3-UCP02-D2 IgG1LALA (antibody, V domains shown)
VH: EVQLVESGGGLVKPGGSLRLSCAASGFTFNKAWMGWVRQAPGKGLEWVGRIKSVTDGGITVYAAPVKGRFTISRDDSKNTLYLQMNSLKTEDTAVYYCARVTARYYYFDNWGQGTLVTVSS
VL: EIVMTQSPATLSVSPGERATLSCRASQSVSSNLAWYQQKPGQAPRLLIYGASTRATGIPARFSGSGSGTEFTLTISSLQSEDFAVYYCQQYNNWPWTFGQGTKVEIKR
notes: IgG1 LALA
Regarding B26, the binding result is on record as “no binding (tested: 800 nM)”.

B27: Anti-CD3-UCP06-A1 IgG1LALA (antibody, V domains shown)
VH: QVQLVQSGAEVKKPGSSVKVSCKASGGHFRGYGISWVRQAPGQGLEWMGEIIPLRGFTIYAQKFQGRVTITADESTSTAYMELSSLRSEDTAVYYCARGSYVDSSYYYYDGFDVWGQGTLVTVSS
VL: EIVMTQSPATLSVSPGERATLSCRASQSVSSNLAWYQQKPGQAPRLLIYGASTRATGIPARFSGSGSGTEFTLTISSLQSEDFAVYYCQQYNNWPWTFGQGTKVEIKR
notes: IgG1 LALA
Turning to B27, the binding result is “no binding (tested: 800 nM)”.

B28: Anti-CD3-UCP07-B3 IgG1LALA (antibody, V domains shown)
VH: EVQLVESGGGLVKPGGSLRLSCAASGFDFNAAWMTWVRQAPGKGLEWVGRIKSEKNGGKSVYAAPVKGRFTISRDDSKNTLYLQMNSLKTEDTAVYYCARGGRLSSYFDPWGQGTLVTVSS
VL: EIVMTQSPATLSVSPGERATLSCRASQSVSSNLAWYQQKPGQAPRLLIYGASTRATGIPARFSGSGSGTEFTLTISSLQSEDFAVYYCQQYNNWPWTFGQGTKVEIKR
notes: IgG1 LALA
Turning to B28, the binding result was “no binding (tested: 800 nM)”.

B29: Anti-CD3-UCP02-A3 IgG1LALA (antibody, V domains shown)
VH: EVQLVESGGGLIQPGGSLRLSCAASGFTFRRYYMTWVRQAPGKGLEWVSVIFPQGGTSYADSVKGRFTISRDNSKNTLYLQMNSLRAEDTAVYYCARVHDVLDDVEWFDHWGQGTLVTVSS
VL: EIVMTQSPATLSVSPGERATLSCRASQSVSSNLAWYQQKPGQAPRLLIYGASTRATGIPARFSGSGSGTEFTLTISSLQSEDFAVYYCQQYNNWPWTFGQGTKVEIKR
notes: IgG1 LALA
In the case of B29, the binding result is given as “no binding (tested: 800 nM)”.
